# According to US20160168212A1 (RAMOT AT TEL AVIV UNIVERSITY, published 2016):
# Molecular target: α-synuclein (recombinant, monomeric fraction) (UniProt P37840 1-140)
# Assay: fluorescence anisotropy; α-syn monomers titrated into the Trp-containing peptide
# Description: The solution was immediately mixed with α-syn monomer stock solution to varying final concentrations. The peptide polarization measurements were carried out using an ISS K2 fluorometer. The solutions were excited at 280 nm and emission was monitored at 350 nm. For each single point, at least five measurements were collected and their average values were used for the calculation. All experiments were performed using ultra pure water.
binder,measurement,value
GVLWVGSKTR (also called β-syn 36 containing Tryptophan instead of Tyrosine) [β-syn 36 in which tyrosine was substituted with tryptophan],Kd,~1000 nM
